Data published in patent US20210363269A1 (ALX ONCOLOGY, published 2021).
Residue numbers refer to the chain shown, from its start.

B1: S65 (scFv, V domains shown)
VH: DVQLVESGGGVVRPGESLRLSCAASGFTFSSYAMSWVRQAPGKGLEWLAGISAGGSDTYYIDSVKGRFTISRDNSKNSLYLQMNSLTAEDTAVYYCARETWNHLFDYWGLGTLVTVSS
VL: ALTQPASVSANPGETVKITCSGGDYYSTYYGWYQQKSPGSAPVTVIHSDDKRPSDIPSRFSGSASGSAATLTITGVRVEDEAVYFCGAYDGRTYINTFGAGTTLTVL
notes: also called clone 65
B2: S17 (scFv, V domains shown)
VH: B1 VH with G10A, K76E
VL: B1 VL with Y25W, F85Y, G87A, A88G
notes: also called clone 17
B3: S23 (scFv, V domains shown)
VH: B1 VH with Y32H, N77S, Q82R
VL: B1 VL with G31A, K51E, T72I, A88G
notes: also called clone 23
B4: S71 (scFv, V domains shown)
VH: B1 VH
VL: B1 VL with D24G, F85Y, G87A, A88G, G91A
notes: also called clone 71
B5: S202 (scFv, V domains shown)
VH: B1 VH
VL: B1 VL with D24G, K36R, F85Y, G87A, A88G, I95L
B6: S70 (scFv, V domains shown)
VH: B1 VH with T58A
VL: B1 VL with Y25W, F85Y, G87A, A88G
notes: also called clone 70
B7: S66 (scFv, V domains shown)
VH: B1 VH with S75P, N84S
VL: B1 VL with G31A, T72I, F85Y, A88G
notes: also called clone 66; scFv-Fc form of AB66
B8: S56 (scFv, V domains shown)
VH: B1 VH with M83V
VL: B1 VL with D24G, F85Y, G87A, A88G
notes: also called clone 56

target: T1, human SIRPβ isoform 1 (human, UniProt O00241 30-148); assay: SPR, Langmuir fit
T1 construct: also called SIRPb; sirpb1
T1 sequence (O00241 30-148 limits assumed): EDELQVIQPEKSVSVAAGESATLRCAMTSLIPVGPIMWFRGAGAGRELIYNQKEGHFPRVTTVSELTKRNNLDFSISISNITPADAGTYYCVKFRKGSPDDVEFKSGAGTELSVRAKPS
How it was run: (§1)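 Dissociation rate constants (koff) were measured on a ProteOn XPR36 instrument by Langmuir model fitting. Antibody clones in scFv-Fc format were captured from pre-filtered culture media onto a GLC chip with about 4000 RU of amine-coupled anti-human IgG Fc. SIRP analytes ran in PBS pH 7.4 with 0.01% Tween-20 at 25° C, and the model used was 1:1, applied to data double-referenced against interspot and buffer-blank responses.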

Point of comparison: B5, koff 0.00205 s⁻¹. Against it:
- B1 — 13-fold lower, 0.000154 s⁻¹
- B2 — 16-fold lower, 0.000125 s⁻¹
- B3 — 18-fold lower, 0.000114 s⁻¹
- B4 — 5.3-fold lower, 0.000388 s⁻¹
- B6 — 9.1-fold lower, 0.000225 s⁻¹
- B7 — 15-fold lower, 0.000138 s⁻¹
- B8 — 5.7-fold lower, 0.000362 s⁻¹

Target: T2, cynomolgus SIRP-α D1 domain (cyno2) (cynomolgus monkey, UniProt Q5TFQ8 30-148 (human entry), limits assumed)
T2 chain: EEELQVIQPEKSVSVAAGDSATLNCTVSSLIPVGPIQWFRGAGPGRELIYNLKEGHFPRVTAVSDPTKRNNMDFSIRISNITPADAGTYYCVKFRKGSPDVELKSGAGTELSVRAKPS
Assay: SPR, Langmuir fit
How it was run: as §1

Point of comparison: B4, koff 0.000313 s⁻¹. Against it:
- B1 — 1.6-fold lower, 0.00019 s⁻¹
- B2 — 1.5-fold lower, 0.000207 s⁻¹
- B3 — 1.7-fold lower, 0.000183 s⁻¹
- B5 — 2.6-fold lower, 0.00012 s⁻¹
- B6 — within 1.5-fold, 0.000245 s⁻¹
- B7 — within 1.5-fold, 0.000255 s⁻¹
- B8 — within 1.5-fold, 0.00028 s⁻¹

target: T3, human SIRPγ isoform 1 (human, UniProt Q9P1W8 29-147); assay: SPR, Langmuir fit
T3 construct: also called SIRPg; sirpg
T3 sequence (Q9P1W8 29-147 limits assumed): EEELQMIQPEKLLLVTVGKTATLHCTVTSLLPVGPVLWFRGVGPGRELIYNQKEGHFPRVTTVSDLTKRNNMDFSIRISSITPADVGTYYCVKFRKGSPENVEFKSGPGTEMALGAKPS
How it was run: as §1

Point of comparison: B3, koff 0.000104 s⁻¹. Against it:
- B1 — within 1.5-fold, 0.000134 s⁻¹
- B2 — within 1.5-fold, 0.000102 s⁻¹
- B4 — 3-fold higher, 0.000316 s⁻¹
- B5 — 2.3-fold lower, 4.44e-05 s⁻¹
- B6 — 2.1-fold higher, 0.000222 s⁻¹
- B7 — within 1.5-fold, 0.000126 s⁻¹
- B8 — 2.1-fold higher, 0.000215 s⁻¹

target: T4, human SIRP-α v2 D1 domain (human); assay: SPR, Langmuir fit
T4 construct: also called human v2
T4 sequence (chain, as listed by the source limits assumed): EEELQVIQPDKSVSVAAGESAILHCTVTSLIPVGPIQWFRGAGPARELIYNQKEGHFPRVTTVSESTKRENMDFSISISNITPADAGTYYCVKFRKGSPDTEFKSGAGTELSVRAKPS
How it was run: as §1

Point of comparison: B5, koff 5.4e-05 s⁻¹. Against it:
- B1 — 3.2-fold higher, 0.000172 s⁻¹
- B2 — 3.6-fold higher, 0.000197 s⁻¹
- B3 — 2.5-fold higher, 0.000135 s⁻¹
- B4 — 7.5-fold higher, 0.000403 s⁻¹
- B6 — 5.4-fold higher, 0.00029 s⁻¹
- B7 — 3.8-fold higher, 0.000206 s⁻¹
- B8 — 5.3-fold higher, 0.000286 s⁻¹

Target: T5, cynomolgus SIRP-α D1 domain (cyno1) (cynomolgus monkey, UniProt Q5TFQ8 30-148 (human entry), limits assumed)
T5 chain: T2 chain with D19E, V27A, S28T, A42V, N51H, L52Q, A62P
Assay: SPR, Langmuir fit
How it was run: as §1

Point of comparison: B7, koff 0.00025 s⁻¹. Against it:
- B1 — within 1.5-fold, 0.000188 s⁻¹
- B2 — within 1.5-fold, 0.000193 s⁻¹
- B3 — 1.6-fold lower, 0.00016 s⁻¹
- B4 — within 1.5-fold, 0.000364 s⁻¹
- B5 — 2.2-fold lower, 0.000113 s⁻¹
- B6 — within 1.5-fold, 0.000296 s⁻¹
- B8 — within 1.5-fold, 0.000295 s⁻¹

Target: T6, high affinity SIRP-α D1 variant CV1-3
T6 chain: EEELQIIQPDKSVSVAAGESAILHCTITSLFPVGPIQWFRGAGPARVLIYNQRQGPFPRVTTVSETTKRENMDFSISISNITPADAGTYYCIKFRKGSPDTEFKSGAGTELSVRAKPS
Assay: SPR, Langmuir fit
How it was run: as §1

Point of comparison: B6, koff 0.00026 s⁻¹. Against it:
- B1 — 1.8-fold lower, 0.000147 s⁻¹
- B2 — 1.7-fold lower, 0.000154 s⁻¹
- B3 — 2.5-fold lower, 0.000106 s⁻¹
- B4 — within 1.5-fold, 0.000379 s⁻¹
- B5 — 3.8-fold lower, 6.86e-05 s⁻¹
- B7 — 2.4-fold lower, 0.00011 s⁻¹
- B8 — within 1.5-fold, 0.000203 s⁻¹

target: T7, human SIRP-α v1 D1 domain (human, UniProt P78324 31-149); assay: SPR, Langmuir fit
T7 construct: also called human v1
T7 sequence (P78324 31-149 limits assumed): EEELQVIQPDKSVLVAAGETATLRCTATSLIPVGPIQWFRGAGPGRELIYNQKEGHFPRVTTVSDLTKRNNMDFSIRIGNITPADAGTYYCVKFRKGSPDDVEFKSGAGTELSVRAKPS
How it was run: as §1

Point of comparison: B7, koff 0.000118 s⁻¹. Against it:
- B1 — within 1.5-fold, 0.000145 s⁻¹
- B2 — within 1.5-fold, 0.000124 s⁻¹
- B3 — within 1.5-fold, 8.35e-05 s⁻¹
- B4 — 2.8-fold higher, 0.000335 s⁻¹
- B5 — 3.1-fold lower, 3.75e-05 s⁻¹
- B6 — 1.9-fold higher, 0.000225 s⁻¹
- B8 — 1.9-fold higher, 0.000228 s⁻¹

target: T8, C57BL/6 mouse SIRP-α D1 domain (mouse (C57BL/6 strain), UniProt P97797 32-148); assay: SPR, Langmuir fit
T8 sequence: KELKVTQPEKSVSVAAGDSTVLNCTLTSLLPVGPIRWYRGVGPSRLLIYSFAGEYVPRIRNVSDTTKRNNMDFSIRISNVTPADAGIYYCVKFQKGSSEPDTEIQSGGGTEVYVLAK
How it was run: as §1

Point of comparison: B1, koff 0.000786 s⁻¹. Against it:
- B2 — within 1.5-fold, 0.00113 s⁻¹
- B3 — 1.7-fold higher, 0.00132 s⁻¹
- B4 — 4.3-fold higher, 0.00341 s⁻¹
- B5 — within 1.5-fold, 0.00063 s⁻¹
- B6 — within 1.5-fold, 0.000987 s⁻¹
- B7 — within 1.5-fold, 0.00102 s⁻¹
- B8 — 5.5-fold higher, 0.00429 s⁻¹

Target: T9, NOD mouse SIRP-α D1 domain (mouse (NOD strain))
T9 chain: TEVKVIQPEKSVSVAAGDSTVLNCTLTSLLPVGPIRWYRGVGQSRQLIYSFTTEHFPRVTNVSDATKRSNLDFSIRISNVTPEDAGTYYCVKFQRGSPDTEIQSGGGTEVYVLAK
Assay: SPR, Langmuir fit
How it was run: as §1

Point of comparison: B4, koff 0.00112 s⁻¹. Against it:
- B1 — 1.8-fold lower, 0.000607 s⁻¹
- B2 — 1.8-fold lower, 0.000612 s⁻¹
- B3 — within 1.5-fold, 0.000823 s⁻¹
- B5 — 2.2-fold lower, 0.000509 s⁻¹
- B6 — 1.7-fold lower, 0.000672 s⁻¹
- B7 — 2.3-fold lower, 0.00049 s⁻¹
- B8 — within 1.5-fold, 0.00106 s⁻¹

Target: T10, mouse 129 SIRP-α D1 domain (mouse (129 strain), UniProt P97797 32-150)
T10 construct: also called m129
T10 chain: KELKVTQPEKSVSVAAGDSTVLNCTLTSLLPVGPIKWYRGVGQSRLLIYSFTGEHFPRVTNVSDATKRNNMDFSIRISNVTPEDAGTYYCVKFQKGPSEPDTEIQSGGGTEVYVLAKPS
Assay: SPR, Langmuir fit
How it was run: as §1

Point of comparison: B5, koff 4.58e-05 s⁻¹. Against it:
- B1 — 3.5-fold higher, 0.000159 s⁻¹
- B2 — 5.1-fold higher, 0.000234 s⁻¹
- B3 — 2.9-fold higher, 0.000134 s⁻¹
- B4 — 9.1-fold higher, 0.000417 s⁻¹
- B6 — 5.9-fold higher, 0.00027 s⁻¹
- B7 — 2.8-fold higher, 0.000127 s⁻¹
- B8 — 8.9-fold higher, 0.000406 s⁻¹
